# Source: the nanobody polyreactivity screen of Harvey et al. (2022)
# Experiment: yeast display, Sf9 membrane polyspecificity reagent, FACS + sequencing; frameworks hold sequencing errors
# In short: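 Galactose-induced (36–48 hours) yeast carrying a synthetic nanobody display library were exposed to 10% biotinylated, detergent-solubilized Sf9 membrane reagent at 4 °C for 1 hour. FACS followed streptavidin microbead enrichment, using low and high (top ~1%) gates for expression (anti-HA) and reagent binding (streptavidin). Colony PCR, MiSeq 2 × 250 sequencing and CDR-length filtering followed. Labels for polyreactivity reflect the gate of origin.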
row,Sequence,polyreactivity (PSR sort gate)
1,QVQLVESGGGLVQAGGSLRLSCAASGRIFSYNAMGWYRQAPGKERELVAAISSDGSTYYADSVKGRFTISRDNAKNSVYLQMNSLKPEDTAVYYCAADTWRDGDDYWGQGTQVTVSS,low polyreactivity
2,QVQLVESGGGLVQAGGSLRLSCAASGIISPFYAMGWYRQATGKERELVADISTGGTTTYADSVKGRFTISRDNAKNTVYLQLNSLKPEDTAVYYCNAEVSLTYYWIVWASYDYWGQGTQVTVSS,low polyreactivity
3,QVQLVESGGGLVQAGGSLRLSCAASGLTFRVYAMGWYRQAPGKERELVAAISKRGGSTYYADSVKGRFTISRDNAKNTVYLQMNSLKPEDTAVYYCAAEPPPYEYVYWGQGTQVTVSS,high polyreactivity
4,QVQLVESGGGLVQAGGSLRLSCAASGIIFRSYAMGWYRQAPGKERELVAGISLSGGSTYYADSVKGRFTISRDNAKNTVYLQMNSLKPEDTAVYYCATRNHYFRALRYGYCGQGTQVTVSS,high polyreactivity
5,QVQLVESGGGLVQAGGSLRLSCAASGSTFYTYAMGWYRQAPGKERELVAAINRSGGTTYYADSVKGRFTISRDNAKNTVYLQMNSLNPEDTAVYYCARRRYGYDYWGQGTQVTVSS,high polyreactivity
6,QVQLLESGGGLVQAGGSLRLSCAASGSILYPYAMGWYRQAPGTERELVAVITKSGGGTYYADSVKGRFTISRDNAKNTVYLQMNSLKPEDTAVYYCNRVWLRGAPHMEYWGQGTQVTVSS,high polyreactivity
7,QVQLVESGGGLVQAGGSLRLSCAASGRIFAKYAMGWYRQAPGKERELVAAISLSGGRTYYADSVKGRFTISRDNAKNTVYLQMNSLKPEDTAVYYCAAEFYPIRYYGGYDYWGQGTQVTVSS,low polyreactivity
8,QVQLVESGGGLVQAGGSLRFSCAASGSTFGFNAMGWYRQAPGKERELLPLFWSGGSTYYADSVNGRFTISRDNAKNSVYLQMNSLKPDDTAVYYCNKDSTPITRYDYWGQGTQVTVSS,low polyreactivity
9,QDQHVESGGGLVQAGGSLRLSCAASVITYGRYVMGWDRQAPGKERELVAAITGSGGSTYYADSVKGRFTISRDNAKNTVYLQMNSLKAEDTAVYYCAAAGGYRFDYWGQGTQVTVSS,high polyreactivity
10,QVQHVESGGGLVQAGGSLRLSCAASGFTFNLYAMGWYRQAPGKERELVAAINWSGGTYYADSVKGRFTISRDNAKNTVYLQMNSLKPEYTAVYYCAADFPYTPWSYHHHVWSPDFDYWGQGTQVTVSS,low polyreactivity
11,QVQLVESGGGLVQAGGSLRLSCAASGSIFWANAMGWYRPAPGKERELVAAINFRATITYYPASVKGRFTISRDNAKNTVYLQMNSRKPEDTAVYYCAKAQAQRYSFYYWGQGTQVTVSS,high polyreactivity
12,QVQLVESGRGLVQAGGSLRLSCAASGSIFYGNTMGWYRQAPGTERELVASITRPGDRTYYADSVKGRFTLSRDNAKNTVDLQMNSLKAEDTAVYYCNAGLVLPPPGACIVYFDQMDYWGQGTQVTVSS,low polyreactivity
13,QVQLGESGGGLVQAGGSLRLSCAASGSTRGYTMGWYRQAPGKERELVAVISYSGGRTYYADSVKGRFTISRDNAKNTVYLQMNSLKPEDTAVYYCNAYYYQFRGIRVSGGYWGQGTQVTVSS,high polyreactivity
14,QVQLVESGGGLVQAGGSLRLSCAASGYTFESYTMGWYRQGPGKERDFVAVISSSDTSTSYADSVKGRFTISRDNAKNTVYLQINSLKAEDTAVYYCAAYSSPYYITYYWYNYDYWGQVTQVTVSS,low polyreactivity
15,QVQLVESGGGLVQAGGSLRLSCAASGSIFFIYAIGWYRQAPGKQRELVATISSGGSTYYADSVKGRFRISRDIAKNTVYLQMNSLKPEDTAVYYCAADGIVQDGLEWEYDYWGQGTQVTVSS,low polyreactivity
16,QVQLVESGGGLVQAGGSLRLSCAASGRIFGRYAMGWYRQAPGKERELVAAISSGGNTYYADSVKGRFTISRDNAKNTVYLQMISLKPEDTAVYYCNALYYRPPGYDYWGQGTQLTVSS,high polyreactivity
17,QVQLVESGGGLVQAGGSLRLSCAASGTIFQQYAMGWYRQAPGKERELVAAISYSGGTTYYADSVKGRFTISRDNAKNTVYLQMNSLKPEYTSVYYCAAYYPSGSYDYYWGQGTQVTVSS,low polyreactivity
18,QVQLVESGGGLVQAGGSLRLSCAASGFTFSYNAMGWYRQAPGKERELVAVINSSGGRTYYADSVKGRFTISRDNAKNTVYLQMNSLKPEDTAVYYCAARPVLAKYYYWGQGTQVTVSS,high polyreactivity
19,QVQLVESGGGLVQAGGSLRLSCAASGRIFRRYAMGWYRQAPGKERELVASISSGGSTNYADSVNGRFTISRDNAKNTVYLQMNSLKPEDTAVYYCAASYPSIYYYRYDYWGKGTQVTVSS,high polyreactivity
20,QVQHVESGGGLVQAGGSLRLSCAASGPTYKRYAMGWYRQAPGKERELVAAIRQRGGSTYYADSVKGRFTISRDNAKNTVYLQMISLKPEDTAVYYWAKRYVSNSQYEYWGQGTQVTVSS,high polyreactivity
21,QVQLVESGGGLVQAGGSLRLSCAASGRIFPYYAMGWYRQAPGKEREFVAAITKRGGSTSYADSVKGRFTISRDNAKNTVYLQMNSLKPEDTAVYYCAARRGSGIVTYYGGDYWGQGTQVTVSS,low polyreactivity
22,QVQLVESGGGLVQAGGSLRLSCAASGSIFYYNYMGWYRQAPGKERELVATITNGGGTNYADSVKGRFTISRDNAKNTVYLQMNSLKPEDTAVYYCARDVWSPDYLYDYWGQGTQVTVSS,low polyreactivity

row,Sequence,polyreactivity (PSR sort gate)
1,LVQLVESGGGLVQAGGSLRLSCAASGSTFANNAMGWYRQAPGKERELVASITTDGSTNYADSVKGRFTISRDNAKNTVYLQMNSLKPEDTAVYYCAAAYQKSPITPKMDYWGQGTQVTVSS,low polyreactivity
2,QVQLVESGGGLVQAGGSLRLSCAASGFIFWWYNMGWYRQAPGKERELVAAISGSGGSTYYADSVKGRFTISRDNAKNTVYLQMNSLKPEHTAVYYCAALFGTGQFYYRYDYWGQGTQVTVSS,high polyreactivity
3,QVQLVESGGGLVQAGGSLRLSCAASGRTCPRYGLGWYRQAPGKERELVATIRTGGRTNYADSVKGRFTISRDNAKNTVYLQMNSLKPEDTAVYYCATDSSKHPYSPTLLKFDYWGQGTQVTVSS,low polyreactivity
4,QVQLQESGGVQAGGSLRLSCAASGYISRSDVKGWYRQAPGKERELVATINNGTITYYADSVKGRFTISRDNAKNTVYLQMNSLKPEDTAVHYCAVVQSDTDSLYYWGQGTQVTVSS,low polyreactivity
5,QVQLVESGGGLVQAGGSLRLSCAASGHIFSRYAMGWFRQAPGKERDLVATITNRGGSTYYADSVKGRFTISRDNAKNSVYLQMNSLKPEDTAVYYCARRTKSYVSHPLDYWGQGTQVTVSS,high polyreactivity
6,QVQLVESGGCLVQAGGSLRLSCAASGRIFQRYAMGWYRQAPGKERELVAGITSAGGSTYYADSVKGRFTISRDNAKNTVYLQMKRLKPEDTAVYYCNAGGELRYYGYRAGGTTRSYDYWGQGTQVTVSS,low polyreactivity
7,QVQLVESGGGLVQAGGSLRLSSAASGSILSYNAMGWYRQAPGKERELVASITGTGRSTRYADSVKGRFTISRDNAKNSVYLQMNSLKPEDTAVYYCATAAWWYYRIYHEFGYWGQGTQVTVSS,high polyreactivity
8,QDQLVESGGGLVQAGGSLRLSCAASGLTFAIYAMGCYRPAPGKERELVAGITWNTGRTYYADSVKGRFTISRDNAKNTVYLQMNSLNPEDTAVYYFAGRFVSRSVRGEATKYDYWGQGTQVTVSS,high polyreactivity
9,QFQHVESGAGLVHAGGCLRLSCSASGRTFFYNAMGWYRQPPGKEREFVASITWSGSTYYADSVKGRFTISRDNAKNTVYLLMNRLKQEDTAVYYCAADRQGGLVIDSGGYDYWGQGTQVTVSS,low polyreactivity
10,QDQLVESGGGLVQAGGSLRLTCAASGSIFRYYVMGWYRQAPGKERELVAGISSSGGRTYYADSVKGRFTISRDNANNTVYLQMNSLKPEDTAVYYCNAVTSRRPYDYWGHGTQVTVSS,high polyreactivity
11,QVQLVESGGGLVQAGGSLRLSCAASGITFNSYRMVWYRQAPVKERELVAAISGSGSSTYYADSVKGRFTISRDNAKNTVYLQMNSLKPEDTGVYYCADVSGKNVDFVWVLAYPRLDYWGQGTQVTVSS,low polyreactivity
12,QVQLVESGGGLVQAGGSLRLSCAASGSIFLAYAMGWDRQAPGKEREFVAAITWSGDSTYYADSVKGRFTISRDNAKNTVYLQMNSLKPEDTAVYYCAADYFGGPSYEFDYWGQGTQVTVSS,low polyreactivity
13,QVQLVESGGGLVQAGGSLRLSCAASGRTFLIYAMGWYRQAPGKEREFVATITYSGGSTYYADSVKGRFTISRDNAKNTVYLQMNSLKPEDTAVYYCAAVRYGYRRSGPYNYSYDYWGQGTQVTVSS,high polyreactivity
14,QVQLVESGGGLVQAGGSLRLSCAASGRILYRYAMGWYRQAPGKERELVAAITWRGGTTYYADSVKGRFTISRDNAKNTVYLQMNSLKPEDTAVYYCNADWWRTLESDYWGQGTQVTVSS,low polyreactivity
15,QVQLVESGGGLVQAGGSLRLSCAASGSTFKGYAMGCYRQAPGKERELVAAISWSAGSTYYADSVKGRFTISRDNAKNTVYLQMNSLKPEDTAVYYCAKASVALRYYSYSLGRDYWGQGTQVTVSS,low polyreactivity
16,QVQLVESVGGLVQAGGSLRLSCAASGSIFVRNAMGWYRQAPGKERELVAGISRSGGSTNYADSVKGRFTISRDNAKNTVYLQMNSLKPEDTAVYYCAASRLVWVGRPWYQVRGDYWGQGTHVTVSS,high polyreactivity
17,QVQLVESGGGLVQAGGSLRLSCAASGFTFTGYAMGWYRQAPGKERELVAAITRGGGSTYYADSVKGRFTISRDNAKNTVYLQMNSLKPEDTAVYYCAAQRSRLIRISSPYYGHDYWGQGTQVTVSS,low polyreactivity
18,QVQLVESGGGLVQAGGSLRLSCAASGRIFGPYAMGWSRQAPGKERELVATITWRTGSTYYADSVKGRFTISRDNAKNTVYLQMNSLKPEDTEVYYSAARYGRYSKAGDYWGQGTQVTVSS,high polyreactivity
19,QVQLVESGGGLVQAGGSLRLSCAASGRTFAWYAMGWYRQAPGKERELVAVIRRGSGDTYYADSVKGRFTISRDNAKNTVYLQMNSLKPEDTAVYYCAAKSVAYKTRAGGVRYESWGQGTQVTVSS,high polyreactivity
20,QVQLVESGGGLVQAGGSLRLSCAASGFIFVDYAMGWYRQAPGKERELVAAISSSGSTTYADSVKGRFTISRDNAKNIVYLQMNSLKPEDTAVYYCAAGLPRVLKDATFDYWGQGTQVTVSS,low polyreactivity
21,QVQLVESGGGLVQAGVSLRLSCAASGSIFGWYAMGWYRQAPGKERELVAGITRSGGSTYYADSVKGRFTISRDNAKNNVYLQMDSLNPEDTAVYYCNADLYRKRAWGSRDGSWGQGTQVTVSS,low polyreactivity
